Changes are numbered by the printed parent chain.
T1: Avi/His-HuIL18BPa (recombinant human IL-18BP isoform A with Avi and poly-His tags) (human, biotinylated with BirA on the Avi tag in some assays)
T1 chain: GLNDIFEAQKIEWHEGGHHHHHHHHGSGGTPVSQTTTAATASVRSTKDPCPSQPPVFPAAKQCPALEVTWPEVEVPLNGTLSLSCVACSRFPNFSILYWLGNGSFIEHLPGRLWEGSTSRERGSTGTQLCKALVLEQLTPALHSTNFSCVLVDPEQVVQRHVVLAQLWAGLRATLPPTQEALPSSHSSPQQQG

T2: Avi/HisMsIL18BPd (recombinant mouse IL-18BP with Avi and poly-His tags) (mouse, biotinylated with BirA on the Avi tag in some assays)
T2 chain: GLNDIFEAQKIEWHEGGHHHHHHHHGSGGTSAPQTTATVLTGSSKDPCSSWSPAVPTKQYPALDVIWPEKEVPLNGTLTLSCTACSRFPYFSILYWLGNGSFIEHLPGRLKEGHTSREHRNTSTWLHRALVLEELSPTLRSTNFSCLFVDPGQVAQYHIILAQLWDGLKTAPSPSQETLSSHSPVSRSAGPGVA

T3: His/Avi-CynoIL18BP (recombinant cynomolgus IL-18BP with His and Avi tags) (cynomolgus monkey)
T3 construct: also called cynomolgus IL-18BP-Avi-His
T3 chain: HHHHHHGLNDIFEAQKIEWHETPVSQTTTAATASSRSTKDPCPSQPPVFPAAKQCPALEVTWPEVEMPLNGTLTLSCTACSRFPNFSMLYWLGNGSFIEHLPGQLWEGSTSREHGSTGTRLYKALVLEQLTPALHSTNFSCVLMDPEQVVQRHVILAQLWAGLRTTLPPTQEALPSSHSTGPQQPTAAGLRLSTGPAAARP

B1: anti-IL-18BP antibody variant BP-04.07 (antibody, V domains shown)
VH: QVQLVQSGAEVKKPGASVKVSCKASGYTFTDYDMHWVRQAPGQGLEWMGIISTYYGVVSYAQKKQGRVTMTRDKSTSTVYMELSSLRSEDTAVYYCARSGTYNYGTRESHALDYWGQGTLVTVSS
VL: DIQMTQSPSSVSASVGDRVTITCRASDNVYSNLAWYQQKPGKAPKLLIYGAISLADGVPSRFSGSGSGTDFTLTISSLQPEDFATYYCQHFWGNPYTFGQGTKLEIK
B2: anti-IL-18BP antibody variant BP-04.08 (antibody, V domains shown)
VH: B1 VH with I51Y, V57D
VL: B1 VL
B3: anti-IL-18BP antibody variant BP-04.09 (antibody, V domains shown)
VH: B1 VH with I51Y, K64F, N103Y, L112F
VL: B1 VL
B4: anti-IL-18BP antibody variant BP-04.29 (antibody, V domains shown)
VH: B1 VH with V57D, K64F
VL: B1 VL
B5: anti-IL-18BP antibody variant BP-04.28 (antibody, V domains shown)
VH: B1 VH with V57D, K64F, N103Y, A111P
VL: B1 VL
B6: anti-IL-18BP antibody variant BP-04.15 (antibody, V domains shown)
VH: B1 VH with V57D, K64F, A111P
VL: B1 VL
B7: anti-IL-18BP antibody variant BP-04.25 (antibody, V domains shown)
VH: B1 VH with I51Y, V57D, K64F
VL: B1 VL

Legend:
[1] = molecular target: T1, Avi/His-HuIL18BPa (recombinant human …); experiment: cell-based or functional assay
[2] = molecular target: T2, Avi/HisMsIL18BPd (recombinant mouse …); experiment: cell-based or functional assay
[3] = molecular target: T1, Avi/His-HuIL18BPa (recombinant human …); experiment: SPR Biacore T200, IgG captured on Protein A/G
[4] = molecular target: T3, His/Avi-CynoIL18BP (recombinant …); experiment: SPR Biacore T200, IgG captured on Protein A/G

Binder | EC50 of IFNγ release, human PBMCs [1] [nM] | EC50 of IFNγ release, mouse splenocytes [2] [nM] | Kd [3] [nM] | koff [3] [s⁻¹] | kon [3] [M⁻¹ s⁻¹] | Kd [4] [nM] | koff [4] [s⁻¹] | kon [4] [M⁻¹ s⁻¹]
B1 | 4.3 | 51.9 | 1.9 | 0.00068 | 350000 | 2.4 | 0.00076 | 320000
B2 | 174 | 94.1 | 16 | 0.0035 | 210000 | 56 | 0.014 | 260000
B3 | 3.74 | 2.04 | 0.52 | 0.00028 | 530000 | 1.3 | 0.0006 | 450000
B4 | 3.53 | 45.5 | 16 | 0.0062 | 390000 | 32 | 0.011 | 340000
B5 | 71.2 | 134 | 4.7 | 0.0019 | 410000 | 7.2 | 0.0023 | 330000
B6 | 12.3 | 43.1 | 12 | 0.0028 | 240000 | 20 | 0.004 | 200000
B7 | 5.05 | 28.9 | 21 | 0.0061 | 300000 | 100 | 0.022 | 220000

Source: patent US20250333523A1 (Alector, published 2025)
